Results on two molecules are retold here after US20260055210A1 (MONTEFIORE MEDICAL CENTER, published 2026).

This experiment deals with T1, Human IgG1 Fc (human, UniProt P01857-1 100-330 = IgG part, limits assumed).
T1 construct: domain: Fc; Negative control; also called human IgG1 Fc domain
In words: flow cytometry, percent of bound cells, cMPL-expressing HEK293 cells. An excerpt:
To study the binding capabilities of the fusion polypeptide provided herein to thrombopoietin receptors, the fusion polypeptides were contacted with cells expressing thrombopoietin receptor cMPL. Mouse or human thrombopoietin receptor cMPL was expressed on the surface of Freestyle™ HEK293 cell line. Mouse or human thrombopoietin receptor cMPL were expressed as a fusion polypeptide with either GPF or mCherry. Expression of cMPL receptors was confirmed by measuring fluorescent signal. As a general control, PD1 protein binding to PDL1-expressing cells was used. Human IgG1 Fc and secondary antibody were used as a negative control since they would not be expected to bind to cMPL. […] The cMPL expressing cells were treated with Nplate (Romiplostim) as the positive control. FLT3L-romiplostim fusion polypeptide with a His-Tag, FLT3L-romiplostim fusion polypeptide without a His-Tag were tested. Binding was analyzed using a fluorescent secondary antibody against IgG1 domain of the polypeptide. The percentages of cells bound to the tested polypeptide were quantified.

B1: human thrombopoietin receptor cMPL expressed on the surface of Freestyle HEK293 cells (receptor, UniProt P40238 26-635, looked up)
chain: QDVSLLASDSEPLKCFSRTFEDLTCFWDEEEAAPSGTYQLLYAYPREKPRACPLSSQSMPHFGTRYVCQFPDQEEVRLFFPLHLWVKNVFLNQTRTQRVLFVDSVGLPAPPSIIKAMGGSQPGELQISWEEPAPEISDFLRYELRYGPRDPKNSTGPTVIQLIATETCCPALQRPHSASALDQSPCAQPTMPWQDGPKQTSPSREASALTAEGGSCLISGLQPGNSYWLQLRSEPDGISLGGSWGSWSLPVTVDLPGDAVALGLQCFTLDLKNVTCQWQQQDHASSQGFFYHSRARCCPRDRYPIWENCEEEEKTNPGLQTPQFSRCHFKSRNDSIIHILVEVTTAPGTVHSYLGSPFWIHQAVRLPTPNLHWREISSGHLELEWQHPSSWAAQETCYQLRYTGEGHQDWKVLEPPLGARGGTLELRPRSRYRLQLRARLNGPTYQGPWSSWSDPTRVETATETAWISLVTALHLVLGLSAVLGLLLLRWQFPAHYRRLRHALWPSLPDLHRVLGQYLRDTAALSPPKATVSDTCEEVEPSLLEILPKSSERTPLPLCSSQAQMDYRRLQPSCLGTMPLSVCPPMAESGSCCTTHIANHSYLPLSYWQQP
notes: whole, on cells; also called human cMPL; human cMLP; not shown: Fused with either GFP (printed 'GPF') or mCherry
Consider B1, for which the binding result was “no binding”.

B2: mouse thrombopoietin receptor cMPL expressed on the surface of Freestyle HEK293 cells (receptor, UniProt Q08351 26-625, looked up)
chain: QDVFLLALGTEPLNCFSQTFEDLTCFWDEEEAAPSGTYQLLYAYRGEKPRACPLYSQSVPTFGTRYVCQFPAQDEVRLFFPLHLWVKNVSLNQTLIQRVLFVDSVGLPAPPRVIKARGGSQPGELQIHWEAPAPEISDFLRHELRYGPTDSSNATAPSVIQLLSTETCCPTLWMPNPVPVLDQPPCVHPTASQPHGPAPFLTVKGGSCLVSGLQAGKSYWLQLRSQPDGVSLRGSWGPWSFPVTVDLPGDAVTIGLQCFTLDLKMVTCQWQQQDRTSSQGFFRHSRTRCCPTDRDPTWEKCEEEEPRPGSQPALVSRCHFKSRNDSVIHILVEVTTAQGAVHSYLGSPFWIHQAVLLPTPSLHWREVSSGRLELEWQHQSSWAAQETCYQLRYTGEGREDWKVLEPSLGARGGTLELRPRARYSLQLRARLNGPTYQGPWSAWSPPARVSTGSETAWITLVTALLLVLSLSALLGLLLLKWQFPAHYRRLRHALWPSLPDLHRVLGQYLRDTAALSPSKATVTDSCEEVEPSLLEILPKSSESTPLPLCPSQPQMDYRGLQPCLRTMPLSVCPPMAETGSCCTTHIANHSYLPLSYWQQP
notes: whole, on cells; also called mouse cMPL; mouse cMLP; not shown: Fused with either GFP (printed 'GPF') or mCherry
Take B2: the binding result is “no binding”.
